The values that follow are results of earlier work, collected in PMC5750235.

This data set deals with IgE (Homo sapiens) (UniProt P01854).
Sequence of IgE (Homo sapiens) (P01854 whole entry): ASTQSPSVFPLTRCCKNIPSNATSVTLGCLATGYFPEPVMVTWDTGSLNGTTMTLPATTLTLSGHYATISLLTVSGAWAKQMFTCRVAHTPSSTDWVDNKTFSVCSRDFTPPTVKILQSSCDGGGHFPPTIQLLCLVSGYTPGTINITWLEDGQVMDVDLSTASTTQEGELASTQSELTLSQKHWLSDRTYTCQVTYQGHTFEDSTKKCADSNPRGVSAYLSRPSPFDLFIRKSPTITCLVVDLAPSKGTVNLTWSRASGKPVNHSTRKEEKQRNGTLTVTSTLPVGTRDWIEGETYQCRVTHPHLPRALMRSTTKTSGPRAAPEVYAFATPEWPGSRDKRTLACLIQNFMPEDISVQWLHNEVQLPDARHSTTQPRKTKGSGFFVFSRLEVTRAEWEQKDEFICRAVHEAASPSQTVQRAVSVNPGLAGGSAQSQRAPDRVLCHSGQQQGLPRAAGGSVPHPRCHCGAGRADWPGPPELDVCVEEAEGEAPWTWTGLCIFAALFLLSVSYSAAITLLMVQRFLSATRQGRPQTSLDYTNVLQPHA

Sequence of CD23 (P06734 48-321): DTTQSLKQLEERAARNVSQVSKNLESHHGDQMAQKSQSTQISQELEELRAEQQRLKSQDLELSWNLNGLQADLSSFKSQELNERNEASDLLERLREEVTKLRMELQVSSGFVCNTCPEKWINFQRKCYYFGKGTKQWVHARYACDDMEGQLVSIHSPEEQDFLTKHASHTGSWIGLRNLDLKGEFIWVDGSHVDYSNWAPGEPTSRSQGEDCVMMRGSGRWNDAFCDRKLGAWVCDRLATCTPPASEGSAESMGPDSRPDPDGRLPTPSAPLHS

In general, Kd refers to the equilibrium constant for the complex coming apart. Consider CD23 (from UniProt P06734), for which the Kd is 2 µM.
